From patent publication US20030216563 come the findings set out here.

Data set [1] concerns the target GST:Weel^70.
In data set [2] the target is GST:Weel^152.
Sequence of GST:Weel^152 (chain, as listed by the source): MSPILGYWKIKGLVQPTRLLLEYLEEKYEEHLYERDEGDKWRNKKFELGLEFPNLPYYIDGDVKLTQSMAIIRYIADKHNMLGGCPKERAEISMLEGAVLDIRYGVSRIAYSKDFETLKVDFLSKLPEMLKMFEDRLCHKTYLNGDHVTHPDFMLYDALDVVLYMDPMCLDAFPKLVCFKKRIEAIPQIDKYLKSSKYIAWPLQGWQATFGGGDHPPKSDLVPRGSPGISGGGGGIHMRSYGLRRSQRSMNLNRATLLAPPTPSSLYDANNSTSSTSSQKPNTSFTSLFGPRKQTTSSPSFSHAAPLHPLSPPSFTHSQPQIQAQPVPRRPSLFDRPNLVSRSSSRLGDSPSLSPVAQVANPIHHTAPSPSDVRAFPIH

Sequence of GST:Weel^70 (chain, as listed by the source): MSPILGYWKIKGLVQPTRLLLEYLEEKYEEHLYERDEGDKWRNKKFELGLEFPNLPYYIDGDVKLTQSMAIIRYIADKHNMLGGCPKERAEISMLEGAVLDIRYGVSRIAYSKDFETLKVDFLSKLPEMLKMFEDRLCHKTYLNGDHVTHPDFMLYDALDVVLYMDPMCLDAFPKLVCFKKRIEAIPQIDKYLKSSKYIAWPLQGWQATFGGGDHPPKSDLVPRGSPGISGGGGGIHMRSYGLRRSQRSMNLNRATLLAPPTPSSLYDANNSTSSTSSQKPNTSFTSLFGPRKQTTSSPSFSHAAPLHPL

B1: Cds1 (protein)
chain: MEEPEEATQATQEAPLHVSQNIAKQVVNNENVFMKLVMTRMLDGKTEVIPLTTDVHNGFWRFGRHKSCEVVLNGPRVSNFHFEIYQGHRNDSDESENVVFLHDHSSNGTFLNFERLAKNSRTILSNGDEIRIGLGVPKDEISFLCQVPVKHSRDSQKNMIKSENSHYEIIRTLGSGTFAVVKLAVEVNSGKWYAIKIINKRKILLTSSEKRATEMFQREIDILKSLHHPGVVQCHEIFENDDELFIVMEYVEGGDLMDFLIANGSIDEQDCKPLLKQLLETLLHLHKQGVTHRDIKPENILITNDFHLKISDFGLAKVIHGTGTFLETFCGTMGYLAPEVLKSKNVNLDGGYDDKVDIWSLGCVLYVMLTASIPFASSSQAKCIELISKGAYPIEPLLENEISEEGIDLINRMLEINPEKRISESEALQHPWFYTVSTHEHRTPPSSSEHEATEQLNSSS
For the protein B1, the “in vitro phosphorylation, two-dimensional tryptic phosphopeptide map” value in data set [1] is “Cds1 purified from fission yeast phosphorylated GST:Weel^70 in vitro, producing a two-dimensional tryptic phosphopeptide map that was identical to a map made from GST:Weel^70 phosphorylated by its associated kinase”. The “phosphorylation by bead-associated kinase with [gamma-32P]ATP” value in data set [2] is “GST:Weel^152 is phosphorylated by this kinase and another that is active prior to HU treatment”.
